Target: Human C1q (human) (UniProt P02745)
Assay: ELISA: antibody coated on the plate at the concentration shown, human C1q added at 10 ug/mL, detection with sheep anti-human C1q-HRP, OD450

Human C1q (human), sequence (P02745 23-245 limits assumed, chain 1 of 3): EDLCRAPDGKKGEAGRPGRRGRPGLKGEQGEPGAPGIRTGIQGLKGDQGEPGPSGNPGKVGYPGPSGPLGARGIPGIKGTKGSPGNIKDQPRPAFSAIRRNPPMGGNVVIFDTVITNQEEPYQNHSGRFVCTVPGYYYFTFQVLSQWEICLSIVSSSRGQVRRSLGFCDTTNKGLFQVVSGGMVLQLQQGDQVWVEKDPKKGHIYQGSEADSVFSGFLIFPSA
Human C1q (human), sequence (P02746 28-253 limits assumed, chain 2 of 3, further chain): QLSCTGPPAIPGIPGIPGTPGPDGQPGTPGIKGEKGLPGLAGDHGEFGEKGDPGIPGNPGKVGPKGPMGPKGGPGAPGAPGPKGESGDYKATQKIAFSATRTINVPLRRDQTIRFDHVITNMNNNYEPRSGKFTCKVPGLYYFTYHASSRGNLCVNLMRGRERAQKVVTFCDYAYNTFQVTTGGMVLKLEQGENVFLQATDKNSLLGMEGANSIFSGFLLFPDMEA
Human C1q (human), sequence (P02747 29-245 limits assumed, chain 3 of 3, further chain): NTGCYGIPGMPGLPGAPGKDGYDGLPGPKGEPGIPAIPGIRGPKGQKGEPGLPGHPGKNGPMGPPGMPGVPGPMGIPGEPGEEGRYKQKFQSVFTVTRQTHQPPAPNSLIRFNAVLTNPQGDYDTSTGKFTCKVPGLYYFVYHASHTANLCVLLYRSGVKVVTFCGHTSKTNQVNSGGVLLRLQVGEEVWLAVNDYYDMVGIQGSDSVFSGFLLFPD

EC50 (read off the curve): 2 µg/mL
Substance: human IgG1 isotype control antibody
